Measurements: US20140170168A1 (published 2014)

T1: RTL2010 (two-domain β1α1 HLA-DR4 with covalently linked GAD-555-567 peptide) (human)
T1 construct: also called RTL2010-BirA
T1 chain: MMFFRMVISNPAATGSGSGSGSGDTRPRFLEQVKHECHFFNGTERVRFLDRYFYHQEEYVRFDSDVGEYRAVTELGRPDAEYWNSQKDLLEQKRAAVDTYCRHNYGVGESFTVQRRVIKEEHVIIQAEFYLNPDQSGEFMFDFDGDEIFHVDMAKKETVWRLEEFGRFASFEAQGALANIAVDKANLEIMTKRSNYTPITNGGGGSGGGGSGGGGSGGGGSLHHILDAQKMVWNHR

T2: RTL600 (empty two-domain HLA-DP2 RTL) (human)
T2 construct: also called DP2 (empty)
T2 chain: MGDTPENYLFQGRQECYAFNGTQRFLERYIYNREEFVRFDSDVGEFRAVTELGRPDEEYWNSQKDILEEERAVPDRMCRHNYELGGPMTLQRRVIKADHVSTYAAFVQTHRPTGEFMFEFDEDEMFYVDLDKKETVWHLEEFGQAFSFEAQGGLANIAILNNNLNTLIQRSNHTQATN

T3: RTL302 (empty two-domain HLA-DR2 RTL) (human)
T3 construct: Two-domain MHC class II without antigenic peptide; also called empty DR2; DR2 (empty)
T3 chain: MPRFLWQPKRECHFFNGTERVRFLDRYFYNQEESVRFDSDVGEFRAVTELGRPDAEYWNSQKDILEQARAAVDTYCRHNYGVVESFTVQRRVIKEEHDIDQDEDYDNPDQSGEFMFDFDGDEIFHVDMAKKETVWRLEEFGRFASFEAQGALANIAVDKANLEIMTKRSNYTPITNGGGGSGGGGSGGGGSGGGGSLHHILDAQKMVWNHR

T4: RTL342m (two-domain β1α1 HLA-DR2 with mouse MOG-35-55 peptide) (mouse)
T4 construct: Differs from RTL1000 by the Pro to Ser change at position 42 of MOG; also called DR2/mMOG-35-55; β1α1DR2/mMOG-35-55
T4 chain: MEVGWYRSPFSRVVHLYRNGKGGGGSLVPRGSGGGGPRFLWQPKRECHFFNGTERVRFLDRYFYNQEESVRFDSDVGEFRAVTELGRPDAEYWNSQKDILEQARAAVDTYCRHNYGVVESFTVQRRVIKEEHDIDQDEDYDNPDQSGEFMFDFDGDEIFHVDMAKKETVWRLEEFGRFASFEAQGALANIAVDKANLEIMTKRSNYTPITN

T5: RTL340 (two-domain β1α1 HLA-DR2 with covalently linked MBP-85-99 peptide) (human)
T5 construct: also called RTL340-BirA; DR2/MBP-85-99
T5 chain: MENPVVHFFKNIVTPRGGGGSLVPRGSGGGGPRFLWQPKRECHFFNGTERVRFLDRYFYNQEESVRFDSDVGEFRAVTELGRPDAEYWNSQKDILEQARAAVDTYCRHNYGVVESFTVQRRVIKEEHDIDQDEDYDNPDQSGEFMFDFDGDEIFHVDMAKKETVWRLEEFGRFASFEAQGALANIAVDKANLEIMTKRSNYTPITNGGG

T6: RTL302 (empty DR2 RTL) loaded with free MOG-35-55 peptide (human)
T6 construct: also called empty β1α1DR2-RTL loaded with MOG-35-55 peptide; MOG-35-55 loaded empty RTL302
T6 chain: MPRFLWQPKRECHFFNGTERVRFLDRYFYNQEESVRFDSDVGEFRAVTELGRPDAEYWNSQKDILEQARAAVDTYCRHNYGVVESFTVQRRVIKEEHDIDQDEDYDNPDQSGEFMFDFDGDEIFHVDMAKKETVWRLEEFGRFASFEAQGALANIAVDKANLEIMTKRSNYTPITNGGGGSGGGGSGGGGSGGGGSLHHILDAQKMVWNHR
T6 peptide: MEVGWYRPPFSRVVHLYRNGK

B1: RTL1000 (two-domain β1α1 HLA-DR2 with covalently linked human MOG-35-55 peptide) (peptide-MHC)
chain: MEVGWYRPPFSRVVHLYRNGKGGGGSLVPRGSGGGGPRFLWQPKRECHFFNGTERVRFLDRYFYNQEESVRFDSDVGEFRAVTELGRPDAEYWNSQKDILEQARAAVDTYCRHNYGVVESFTVQRRVIKEEHDIDQDEDYDNPDQSGEFMFDFDGDEIFHVDMAKKETVWRLEEFGRFASFEAQGALANIAVDKANLEIMTKRSNYTPITNGGGGSGGGGSGGGGSGGGGSLHHILDAQKMVWNHR
notes: also called RTL1000-BirA; DR2/MOG-35-55
B2: Fab 2E4 (Fab, V domains shown)
VH: EVQLVESGAEVKKPGASVKVSCKASGYTFTSYYMHWVRQAPGQGLEWMGIINPSGGSTSYAQKFQGRVTMTRDTSTSTVYMELSSLRSEDTAVYYCAREGDNYYGDAFDIWGQGTMVTVSS
VL: EIVLTQSPATLSLSPGERATLSCRASQSVSSYLAWYQQKPGQAPRLLIYDASNRATGIPARFSGSGSGTDFTLTISSLEPEDFAVYYCQQRSNWPPSYTFGQGTKLEIKR
notes: also called 2E4 Fab; anti-RTL1000 TCRL Fab
B3: Fab 2C3 (Fab, V domains shown)
VH: QVQLVQSGGGVVQPGRSLRLSCAASGFTFSSYAMHWVRQAPGKGLEWVAVISYDGSNKYYADSVKGRFTISRDNSKNTLYLQMNSLRAEDTAVYYCARDRSFWSGYYIINYYYYGMDVWGQGTTVTVSS
VL: DVVMTQSPLSLPVTPGEPASISCRSSQSLLHSDGNNYLDWYLQKPGQSPQLLIYLGSNRASGVPDRFSGSGSGTDFTLKISRVEPEDVGVYYCMQALHIPLTFGQGTRLEIKR
notes: also called 2C3 Fab

Assays:
[1] = target: T1, RTL2010 (two-domain β1α1 HLA-DR4 with …); assay: ELISA on immobilised RTL and four-domain complex (FIG. 8C)
Protocol: (§1) Binding specificity of individual phage clone supernatants and soluble Fab fragments were determined by ELISA using biotinylated two and four-domain MHC/peptide complexes. ELISA plates (Falcon) were coated overnight with BSA-biotin (1 μg/well). After being washed, the plates were incubated (1 hour at room temperature) with streptavidin (10 μg/ml), washed extensively and further incubated (1 hour at room temperature) with 5 μg/ml of MHC/peptide complexes. The plates were blocked for 30 minutes at room temperature with PBS/2% skim milk and subsequently were incubated for 1 hour at room temperature with phage clone supernatants (induced at OD₆₀₀=0.8-1.0 for overnight expression at 30° C.) or 5 μg/ml soluble purified Fab. After washing, plates were incubated with horseradish peroxidase-conjugated/anti-human-Fab antibody. Detection was performed using TMB reagent (Sigma). For binding of peptide-loaded RTLs, ELISA plates were coated 2 hours at 37° C. with purified Fab, washed extensively and blocked for 30 minutes with PBS/2% skim milk. […] After washing, plates were incubated with horseradish peroxidase-conjugated/anti-mouse-IgG antibody and detection was performed as described above.

[2] = target: T1, RTL2010 (two-domain β1α1 HLA-DR4 with …); assay: ELISA, purified Fab 1B11 on immobilised RTLs and four-domain complexes
Protocol: as §1

[3] = target: T2, RTL600 (empty two-domain HLA-DP2 RTL); assay: as above
Protocol: as §1

[4] = target: T3, RTL302 (empty two-domain HLA-DR2 RTL); assay: ELISA, soluble purified Fab on immobilised biotinylated complex or peptide
Protocol: as §1

[5] = target: T4, RTL342m (two-domain β1α1 HLA-DR2 with …); assay: ELISA, soluble Fab on immobilised RTL (FIG. 3A)
Protocol: as §1

[6] = target: T5, RTL340 (two-domain β1α1 HLA-DR2 with …); assay: ELISA, soluble purified Fab on immobilised biotinylated complex or peptide
Protocol: as §1

[7] = target: B1; assay: SPR (ProteOn XPR36), Fab captured by immobilised anti-Fab, RTL1000 injected at 62.5-1000 nM
Protocol: Six channels were activated with 50 μl of a mixture of 0.04 M N-ethyl-N-(3-dimethylaminopropyl) carbodiimide (EDC) and 0.01 M sulfo-N-hydroxysuccinimide (Sulfo-NHS) at a flow rate of 30 μl/min. The anti-Fab specific Fab was diluted in 10 mM sodium acetate buffer pH 4.5 to a final concentration of 25 μg/ml, and 150 μl were injected followed by an injection of 150 μl of 1 M ethanolamine-HCl pH 8.5. The immobilization levels were about 4,000 RU. Next, 150 μl of five different supernatants were injected in the vertical orientation in five different channels to allow their capture by the immobilized Fab anti Fab. The sixth channel remained empty to serve as a reference. […] Running buffer was injected simultaneously in the sixth channel for double referencing to correct for loss of the captured supernatant from the chip sensor surface during the experiment. All binding sensorgrams were collected, processed and analyzed using the integrated ProteOn XPR36 system Manager (Bio-Rad Laboratories, Hercules, USA) software. Binding curves were fitted using the Langmuir model describing 1:1 binding stoichiometry, or with the Langmuir and mass transfer limitation model. Each individually captured antibody interacting with the five concentrations of antigen was fitted using a global ka, kd and Rmax. Global fitting is used when the same ka, kd and Rmax values describe a specific biological model like five antigen concentrations interacting with a certain antibody.

[8] = target: T6, RTL302 (empty DR2 RTL) loaded with free …; assay: sandwich ELISA: plate coated with purified Fab, loaded or empty RTL302 added, detection with mAb TU39
Protocol: as §1

Fab 2E4 = target: B2; assay: competition ELISA: soluble competitor varied, binding of purified Fab 2E4 to immobilised RTL1000 read
Fab 2C3 = target: B3; assay: competition ELISA: soluble competitor varied, binding of purified Fab 2C3 to immobilised RTL1000 read

Row | Binder | binding result [1] | binding result [2] | binding result [3] | binding result [4] | fold reduction in binding to RTL342m compared to RTL1000 [5] | binding result [6] | Kd [7] | binding result [8] | binding result (Fab 2E4) | binding result (Fab 2C3)
1 | Fab D2 (Fab, V domains shown, the heavy chain entry holds VH, CH1, connector, His tag and Myc tag; also called D2 Fab) VH: EVQLVQSGAEVKKPGSSVKVSCKASGGTFSSYAISWVRQAPGQGLEWMGIINPSGGSTSYAQKFQGRVTITADKSTSTAYMELSSLRSEDTAVYYCARGGPTGIFDYWGQGTLVTVSS VL: EIVLTQSPATLSLSPGERATLSCRASQSVSSYLAWYQQKPGQAPRLLIYDASNRATGIPARFSGSGSGTDFTLTISSLEPEDFAVYYCQQRSNWPLTFGGGTKVEIKR | binds | – | – | – | – | – | – | – | – | –
2 | Fab 1B11 (Fab, V domains shown, also called 1B11 Fab) VH: EVQLVQSGAEVKKPGASVRVSCKASGYTFTSYGISWVRQAPGQGLEWMGWISAYNGNTNYAQKLQGRVTMTTDTSTSTAYMELRSLRSDDTAVYYCARDIRAYGSGSYSRYYYYGMDVWGQGTTVTVSS VL: EIVLTQSPATLSVSPGERATLSCRASQNIGSILAWYQHKPGQAPRLLIYGASTRATGIPARFSGSGSGTEFTLTISSLQSDDFAVYYCQQYLYWPFTFGGGTKVEIKR | – | binds | no binding (tested: 5 µg/ml Fab) | binds | – | – | – | – | – | –
3 | Fab 3A3 (Fab, V domains shown, also called 3A3 Fab) VH: QVQLQESGGGLVKPGGSLRLSCAASGFTFSSYSMNWVRQAPGKGLEWVSSISSSSSYIYYADSVKGRFTISRDNAKNSLYLQMNSLRAEDTAVYYCARVRGHRYYYDSSGYYSSDYYYYYGMDVWGQGTTVTVSS VL: DIQLTQSPSSVSASVGDRVTITCRASQVISSWLAWYQQKPGKAPKLLISTASSLQSGVPPRFSGSGSGTDFTLTITSLQPEDFATYYCQQANSFPLTFGQGTKVEIKR | – | – | – | no binding (tested: 5 µg/ml Fab) | 5 fold | no binding (tested: 5 µg/ml Fab) | 58 nM | binds | – | –
4 | B1 | – | – | – | – | – | – | – | – | binds | binds
5 | Fab 3H5 (Fab, V domains shown, also called 3H5 Fab) VH: QVQLQESGPGLVKPSETLSLTCTVSGGSISGYYWSWIRQPPGKGLEWIGYIYYSGSTNYNPSLKSRVSISVDTSKNQFSLRLSSVTAADSAVYFCARDERDAYYYGMDVWGQGTTVTVSS VL: not shown | – | – | – | no binding (tested: 5 µg/ml Fab) | – | no binding (tested: 5 µg/ml Fab) | 129 nM | binds | – | –
6 | B2 | – | – | – | no binding (tested: 5 µg/ml Fab) | 2 fold | no binding (tested: 5 µg/ml Fab) | 33 nM | binds | – | –
7 | B3 | – | – | – | no binding (tested: 5 µg/ml Fab) | – | no binding (tested: 5 µg/ml Fab) | 153 nM | binds | – | –
8 | Fab 1F11 (Fab, V domains shown, also called 1F11 Fab) VH: QLQLQESGPGLVKPSETLSLTCTVSGVSISSRSGHWGWVRQPPGKGLEWIGSISYSGSTYYNPSLKSRVTISVDTSKNQLSLKLSSVTAADTAVYYCARESHPAAALVGWGQGTLVTVSS VL: ETTLTQSPGTLSLSPGERATLSCRASQSIINSHLAWYQQKPGQAPRLLIYGASSRATGIPDRFSGGGSGTDFTLTITRLETEDFALYFCQQYGTSPLTFGGGTRVETKR | – | – | – | no binding (tested: 5 µg/ml Fab) | 5 fold | no binding (tested: 5 µg/ml Fab) | 60 nM | binds | – | –
